This note sets out measurements from publication PMC4486934.

By Kd is commonly meant the equilibrium constant for the complex coming apart. A high value points to weaker binding.

The data set deals with alpha-thrombin (biotinylated, thrombin-BFPRck) (human, UniProt P00734;P00734 328-363;364-622). Put plainly: BLI; 2 mM Ca2+; TBB: 20 mM HEPES pH 7.4, 150 mM NaCl, 2 mM CaCl2; room temperature (cell binding); BLI in TBB. (In BLI a coated tip is dipped into the sample, and binding shifts an interference pattern.)

B1: 5-12mini (structured_RNA)
RNA: GGGAGCUCAGAAUAAACGCUCAAGUUACUGAGCUCAGCAUGAGGCCCGGAUCCGGC
modifications: 2'-fluoro pyrimidines
B1 yielded a dissociation constant (Kd) of about 5 nM.
